The labels stand for the following.
B1: 16E10: rabbit anti-α11β1 mAb; heavy chain SEQ ID NO: 161, light chain SEQ ID NO: 162 (antibody)
heavy: METGLRWLLLVAVLKGVQCQSLEESGGDLVKPGASLTLTCRVSGFSFSSSYYMCWVRQAPGKGLEWIACIGTTRGSTYYATWAKGRFTISKISSTTVTLQMTSLTDADTATYFCARDATGYRINTIGLYFNLWGPGTLVTVSSGQPKAPSVFPLAPCCGDTPSSTVTLGCLVKGYLPEPVTVTWNSGTLTNGVRTFPSVRQSSGLYSLSSVVSVTSSSQPVTCNVAHPATNTKVDKTVAPSTCSKPMCPPPELPGGPSVFIFPPKPKDTLMISRTPEVTCVVVDVSQDDPEVQFTWYINNEQVRTARPPLREQQFNSTIRVVSTLPIAHQDWLRGKEFKCKVHNKALPAPIEKTISKARGQPLEPKVYTMGPPREELSSRSVSLTCMINGFYPSDISVEWEKNGKAEDNYKTTPTVLDSDGSYFLYSKLSVPTSEWQRGDVFTCSVMHEALHNHYTQKSISRSPGK
light: MDTRAPTQLLGLLLLWLPGARCAFELTQTPSSVEAAVGGTPTIKCQASQTIYSYLSWYQQKPGQPPKLLIYEASKLASGVPSRFSGSGSGTDYTLTISDLECADAATYYCQSYHGTASTEYNTFGGGTEVVVRGDPVAPTVLIFPPAADQVATGTVTIVCVANKYFPDVTVTWEVDGTTQTTGIENSKTPQNSADCTYNLSSTLTLTSTQYNSHKEYTCKVTQGTTSVVQSFNRGDC
B2: 3-G5: mouse anti-α11β1 mAb; VH SEQ ID NO: 135, VL SEQ ID NO: 136 (antibody, V domains shown)
VH: QVQLQQSGAELARPGASVKLSCKASGYTFTSYGISWVKQRTGQGLEWIGEIFPRSSNTYYNEKFKGKATLTADKSSSTVYMEFRSLTSEDSAVYFCAREGGLAWFAYWGQGTLVTVSA
VL: DVVMTQTPLTLSVTIGQPASISCKSSQSLLYTNGNTYLNWLLQRPGQSPKRLIYLVSKLDSGIPDRFSGSGSGTDFTLRISRVEAEDLGVYYCLQSTHFPFTFGSGTKLEIK
B3: 9-E16: mouse anti-α11β1 mAb; VH SEQ ID NO: 111, VL SEQ ID NO: 112 (antibody, V domains shown)
VH: EVQLQQSGPELVKPGASVKISCKASGYTFTDYYMHWVKQKPGQGLEWIGEIYPGSGNPYYNEKFKGKATLTADKSSSSAYMQLSSLTSEDSAVYFCARTSYGRVGTGFAYWGQGTLVTVSA
VL: NFVMTQTPLSLPVSLGDQASISCRSSQSLLHSNGNTYLHWYLQKPGQSPKLLIYKVSNRFSGVPDRFSGSGSGTDFTLKINRVETEDLGIYFCSQSSHVPTFGAGTKLELK
B4: 9-G05: mouse anti-α11β1 mAb; VH SEQ ID NO: 103, VL SEQ ID NO: 104 (antibody, V domains shown)
VH: EVQLQQSGPELVKPGASVKIPCKASGYTFPDYNMDWVKQSHGKSLEWIGYINPDNGGTIYNQKFKGKATLTVDKSSSTAYMELRSLTSEDTAVYYCARLDSSGYGYYAMDYWGQGTSVTVSS
VL: DIVLTQSPASLAVSLGQRATISCRASESVDNYGISFMHWYQQKPGQPPKLLIYRASNLDSEIPARFSGSGSRTDFTLTIDPVETDDVATYYCQQSYKDPRTFGGGTKLEIK
B5: 24E4G6: rat anti-α11β1 mAb; VH SEQ ID NO: 147, VL SEQ ID NO: 148 (antibody, V domains shown)
VH: MELELSLIFIFSLLKDVQCEVQLVESGGSLVQPGGSLKLSCVASGYTFSNYWMDWVRQSPGKSLEWIGEINTDGRRTNYAPSIKDRFTISRDNAKSTLYLQMSNVKSDDTAIYYCTILRVYPHYFDYWGQGVMVTVSS
VL: MMSPAQFLFLLMLWIQEARGDVVMTQTPPSLSVAIGQSVSISCKSSQSLVYSDGETYLHWFLQSPGRSPKRLIYHVSNLGSGVPDRFSGTGSLTDFTLRISRVEAEDLGVYYCAQTTHFPPTFGAGTKLELK
B6: 16G7: rabbit anti-α11β1 mAb; heavy chain SEQ ID NO: 159, light chain SEQ ID NO: 160 (antibody)
heavy: METGLRWLLLVAVFKGVQCQEQLVESGGDLVKPGASLTLTCTASGFSFNKNYWMCWVRQAPGKGLEWIGCIYNGDGNTYYASWVNGRFTISKTSSTTVTLQMTSLTVADTAIYFCARLLNMWGPGTLVTVSSGQPKAPSVFPLAPCCGDTPSSTVTLGCLVKGYLPEPVTVTWNSGTLTNGVRTFPSVRQSSGLYSLSSVVSVTSSSQPVTCNVAHPATNTKVDKTVAPSTCSKPMCPPPELPGGPSVFIFPPKPKDTLMISRTPEVTCVVVDVSQDDPEVQFTWYINNEQVRTARPPLREQQFNSTIRVVSTLPIAHQDWLRGKEFKCKVHNKALPAPIEKTISKARGQPLEPKVYTMGPPREELSSRSVSLTCMINGFYPSDISVEWEKNGKAEDNYKTTPTVLDSDGSYFLYSKLSVPTSEWQRGDVFTCSVMHEALHNHYTQKSISRSPGK
light: MDTRAPTQLLGLLLLWLPGARCADIVMTQTPASVEAAVGGTVTIKCQASESIGNALAWYQQKPGQPPKLLIYTAATLASGVPSRFSGSGSGTEFTLTISGVQCDDAATYYCQSYYFTSVSSYGNAFGGGTEVVVKGDPVAPTVLIFPPAADQVATGTVTIVCVANKYFPDVTVTWEVDGTTQTTGIENSKTPQNSADCTYNLSSTLTLTSTQYNSHKEYTCKVTQGTTSVVQSFNRGDC

Entries after “also recorded” stand apart in the source; their conditions may differ.

In the first assay the target is mouse α11β1 (Mus musculus, UniProt P61622). As to the kind of experiment: ELISA binding to recombinant mouse α11β1.
Chain of mouse α11β1 (P61622 23-1141 limits assumed): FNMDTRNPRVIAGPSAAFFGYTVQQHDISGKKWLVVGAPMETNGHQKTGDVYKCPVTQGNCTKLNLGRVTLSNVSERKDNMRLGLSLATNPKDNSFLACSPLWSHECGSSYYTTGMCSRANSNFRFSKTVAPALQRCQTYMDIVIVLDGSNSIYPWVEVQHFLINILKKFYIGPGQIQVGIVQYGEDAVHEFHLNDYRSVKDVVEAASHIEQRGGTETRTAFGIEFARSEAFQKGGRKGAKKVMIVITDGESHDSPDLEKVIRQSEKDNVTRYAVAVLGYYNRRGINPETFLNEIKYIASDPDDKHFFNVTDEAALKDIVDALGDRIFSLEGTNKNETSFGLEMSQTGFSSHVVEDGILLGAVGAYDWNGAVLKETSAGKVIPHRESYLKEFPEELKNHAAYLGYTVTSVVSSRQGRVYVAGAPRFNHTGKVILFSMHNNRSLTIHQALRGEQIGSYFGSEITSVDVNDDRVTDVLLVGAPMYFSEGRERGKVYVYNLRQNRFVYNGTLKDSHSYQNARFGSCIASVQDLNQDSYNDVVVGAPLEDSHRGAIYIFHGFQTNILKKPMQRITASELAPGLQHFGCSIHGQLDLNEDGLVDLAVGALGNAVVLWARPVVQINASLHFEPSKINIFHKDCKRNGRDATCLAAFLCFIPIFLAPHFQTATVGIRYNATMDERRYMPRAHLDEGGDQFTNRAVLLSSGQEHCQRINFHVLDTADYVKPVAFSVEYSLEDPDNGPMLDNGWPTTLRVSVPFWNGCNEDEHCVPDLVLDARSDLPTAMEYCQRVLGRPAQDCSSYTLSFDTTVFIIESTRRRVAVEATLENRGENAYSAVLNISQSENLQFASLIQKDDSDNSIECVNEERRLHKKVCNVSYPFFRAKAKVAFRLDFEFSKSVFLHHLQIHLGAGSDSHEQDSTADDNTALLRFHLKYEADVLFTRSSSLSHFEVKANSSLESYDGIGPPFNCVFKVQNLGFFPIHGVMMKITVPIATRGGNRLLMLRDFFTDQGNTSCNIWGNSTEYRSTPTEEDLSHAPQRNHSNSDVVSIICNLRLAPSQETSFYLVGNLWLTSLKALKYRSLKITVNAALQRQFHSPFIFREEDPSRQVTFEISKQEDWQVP
Chain of mouse α11β1 (P09055 21-728 partner limits assumed): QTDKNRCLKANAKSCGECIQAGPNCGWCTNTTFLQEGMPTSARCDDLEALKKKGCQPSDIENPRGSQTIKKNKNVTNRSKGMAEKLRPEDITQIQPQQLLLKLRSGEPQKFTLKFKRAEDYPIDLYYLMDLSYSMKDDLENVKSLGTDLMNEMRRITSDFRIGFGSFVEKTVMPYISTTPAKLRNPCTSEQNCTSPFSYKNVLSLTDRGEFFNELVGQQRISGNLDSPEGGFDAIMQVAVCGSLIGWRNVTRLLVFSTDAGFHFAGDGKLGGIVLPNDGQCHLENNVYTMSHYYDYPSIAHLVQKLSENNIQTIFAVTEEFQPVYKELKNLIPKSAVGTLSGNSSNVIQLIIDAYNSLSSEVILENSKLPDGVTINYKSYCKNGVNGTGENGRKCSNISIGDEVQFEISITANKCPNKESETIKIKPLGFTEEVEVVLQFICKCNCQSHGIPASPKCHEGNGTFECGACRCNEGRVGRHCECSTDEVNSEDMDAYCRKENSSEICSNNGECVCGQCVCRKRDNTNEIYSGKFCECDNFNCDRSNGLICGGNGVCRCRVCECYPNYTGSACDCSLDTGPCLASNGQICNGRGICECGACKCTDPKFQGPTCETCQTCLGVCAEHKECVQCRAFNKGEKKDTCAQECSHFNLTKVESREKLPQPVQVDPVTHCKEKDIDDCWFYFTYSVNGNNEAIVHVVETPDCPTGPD
Conditions: not given
The method, then: (§1) 0.25 μg/mL of target antigen (recombinant human or mouse α11β1) was plated in a 96-well plate over night at 4° C. Plates were washed (PBS with 0.1% Tween-20), blocked (PBS with 2% BSA and 0.05% Tween-20) for 1 hour at room temperature and incubated with a range of antibody concentrations for 1 hour at room temperature. Subsequently, plates were washed and incubated with biotinylated anti-rabbit/mouse/human IgG in a 1:1000 dilution buffer and incubated for 1 hour at room temperature. After washing the plates, Streptavidin HRP was added at 1:200 in dilution buffer and incubated for 1 hour at room temperature. Ultra TMB ELISA substrate solution was added and the plates incubated for 5 minutes on a plate shaker. The reaction was stopped by adding stop solution to each well and plates were read at 450 nm.
B1: the “binding to mouse α11β1” value was “does not bind mouse α11β1”.

Staying with this assay, now noted: binding Yes/No.
On to B2, for which the “Murine α11β1 ELISA” value is “Yes/Low”.

For the molecule B1, the “Murine α11β1 ELISA” value is given as “No”.

Consider B3, for which the “Murine α11β1 ELISA” value is recorded as “Yes”.

As to B4, the “Murine α11β1 ELISA” value is recorded as “Yes”.

Take B5: the “Murine α11β1 ELISA” value is listed as “No/Low”.

Consider B6, for which the “Murine α11β1 ELISA” value is given as “Yes”.

A further assay relates to α1β1, α2β1 and/or α10β1. The assay can be described thus: Counter-screen for cross-reactivity to other collagen receptors. The settings on record: cross-reactivity to α1β1, α2β1, α10β1. It is filed as binding, human. The method, then: Wistar rats were immunized with recombinant human α11β1 protein. An enzyme-linked immunosorbent assay (ELISA) was used to test an immune response against target human and mouse proteins. Subsequently, cell fusion (by electro fusion) was performed with animals that produced a good immune response. All fused cells were plated in a 96-well plate and supernatants were screened by ELISA against soluble human and mouse α11β1. Positive clones were counter-screened against human α1β1, α2β1 and α10β1. […] Purified antibodies were then generated from the selected clones and heavy chain and light chain variable domain sequences were obtained from each purified antibody.
10 mice from 5 different strains were immunized with an appropriate mixture of human α11β1, mouse α11β1 and tolerance breaking protein. Plasma titers were evaluated by ELISA against a mixture of human and mouse α11β1. Popliteal, inguinal, and iliac lymph nodes were collected. ELISA-positive anti-human/mouse α11β1 hybridomas were expanded and subjected to a secondary screen against human and mouse α11β1, control HIS protein, and a counter-screen was performed against human […], α2β1 and α10β1. Supernatant IgG concentration was sufficient for functional screening. Selected hybridomas satisfying all the criteria were cloned and clonal hybridomas were confirmed by ELISA against human and mouse α11β1 and subsequently scaled-up and IgGs were purified. Heavy and light chain variable regions of selected hybridomas were then sequenced.
α11β1 belongs to a family of collagen receptors and has a relatively high homology to them. Therefore, the novel antibodies of this invention were counter-screened against α1β1, α2β1 and/or α10β1. Table 2 includes results of cross-reactivity to the other receptors.
Consider B2, for which the “Off Target” value is reported as “No”.

On to B1, for which the “Off Target” value is reported as “No”.

Turning to B3, the “Off Target” value is on record as “No”.

Turning to B4, the “Off Target” value is “No”.

As to B5, the “Off Target” value is listed as “No”.

Take B6: the “Off Target” value is recorded as “No”.

A further assay deals with T1, I domain of α11β1 (Homo sapiens, UniProt Q9UKX5).
T1 construct: An in-house generated I domain of α11β1 was used; made in house
T1 sequence (Q9UKX5 164-345 limits assumed): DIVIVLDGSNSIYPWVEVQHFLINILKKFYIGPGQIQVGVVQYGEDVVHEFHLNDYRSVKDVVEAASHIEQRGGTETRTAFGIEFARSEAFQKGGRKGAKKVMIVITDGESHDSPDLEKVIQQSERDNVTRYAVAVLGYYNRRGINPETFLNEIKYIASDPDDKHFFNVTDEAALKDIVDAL
As to the kind of experiment: ELISA binding to in-house generated I domain of α11β1.
Conditions: not given
As to the method:
as §1
22 Data was also collected to determine whether antibodies of interest bind to the I domain of α11β1. An in-house generated I domain of α11β1 was used. […] Mouse antibodies 10-F23, 10-L15, 7-O8, 6-A12, 9-G05 and 9-E16 and rabbit antibodies 7-H12 and 2-D3 were also tested for binding against the in-house generated α11031 domain. FIGS. 3A and 3B show graphs illustrating binding data from exemplary mAbs.
For B3, the “I-domain binder” value is given as “I domain binders; also recorded: I-domain binders; also recorded: bound the I domain”.

For the molecule B4, the “I-domain binder” value is reported as “I domain binders; also recorded: I-domain binders; also recorded: bound the I domain”.

B5: the “I-domain binder” value was “did not bind to the I-domain; also recorded: neither of the antibodies was found to be an I-domain binder”.

The same assay, now with this note: Yes/No.
As to B2, the “I Domain binding” value is listed as “No”.

As to B1, the “I Domain binding” value is “No”.

Consider B3, for which the “I Domain binding” value is “Yes”.

Take B4: the “I Domain binding” value is reported as “Yes”.

B5: the “I Domain binding” value is given as “No”.

Consider B6, for which the “I Domain binding” value was “No”.

The next assay relates to human pulmonary fibroblasts (HPFs). As to the kind of experiment: FACS antibody binding to human pulmonary fibroblasts. The settings on record: FACS. As to the method: (§2) Human Pulmonary Fibroblasts (ScienCell) were cultured in complete Fibroblast Growth Medium (ScienCell) until 80% confluent in T-150 flasks. Cells were washed and harvested using Accutase. Cells were seeded into T-150 flasks at 7,500 cells/cm^2 in complete FGF and cultured for 72 hours. Cells were then washed and starved in serum reduced medium for 24 hours. After starvation, cells were treated with TGFβ-1 (R&D Systems) for 72 hours. Cells were harvested using Accutase and seeded in 96-well conical bottom plates. Cells were blocked with Heat Inactived Fetal Bovine Serum (Gibco) for 30 minutes at 4° C. Cells were then incubated with anti-α11 antibodies at the doses described in each figure for 30 minutes at 4° C. A human anti-α11 antibody (Creative BioLabs) was included as a positive control as well as the appropriate IgG isotype negative controls. Cells were washed twice and incubated with PE conjugated secondary antibodies specific to the IgG class of the anti-α11 antibodies being tested for 30 minutes at 4° C. Cells were washed twice and fixed in 1% PFA for 30 minutes. Cells were acquired on a FACS Verse […]. Data were analyzed by gating on single cells and determining the geometric Mean Fluorescence Intensity (gMFI) in the PE channel for each sample.
(§3) Binding to a physiologically relevant primary human cell type was also tested. Human pulmonary fibroblasts (HPF) and TGFβ treatment were used to induce a fibroblast-to-myofibroblast transition (FMT), giving rise to myofibroblasts (MF). […] Additionally, HPFs express α11 and α2β1, other collagen binding receptors, which means that HPFs can be to test cross-reactivity of antibodies of interest.
As for B3, the “binding to HPFs” value was “some HPF binding”.

Staying with this assay, now noted: binding Yes/No.
For the molecule B2, the “HPF FACS” value is “No”.

On to B1, for which the “HPF FACS” value is reported as “No”.

In the case of B3, the “HPF FACS” value was “Low”.

Consider B4, for which the “HPF FACS” value is recorded as “No”.

For B5, the “HPF FACS” value is recorded as “No”.

B6: the “HPF FACS” value is recorded as “No”.

For a further assay, the system named is myofibroblasts (MF). The assay can be described thus: FACS antibody binding to myofibroblasts. Set-up: species or system human. The settings on record: binding Yes/No. As to the method: as §2, §3
On to B2, for which the “MF FACS” value is listed as “No”.

Take B1: the “MF FACS” value is recorded as “Yes”.

For B3, the “MF FACS” value is listed as “Yes”.

Consider B4, for which the “MF FACS” value was “Yes”.

As to B5, the “MF FACS” value was “Yes”.

In the case of B6, the “MF FACS” value is “Yes”.
